One experiment concerns the target T1, human wild-type p53 (Homo sapiens, UniProt P04637).
T1 construct: Plasmid pGEMhump53wt encodes full-length human wild-type p53; made in house; host or cells: cell-free in vitro transcription and translation from pGEM4-based plasmid
The experiment can be described thus: p53 DNA binding assay: activation of DNA binding of wild-type p53. As to conditions: for potency in activating DNA binding relative to p53p373-383: 0.4 mM; for activation of binding of wild-type p53: peptide 0.4 mM. In kind it is biochemical.

A further experiment concerns the target T2, p53 mutant His273 (Homo sapiens, UniProt P04637, R273H).
T2 construct: made in house; host or cells: cell-free in vitro transcription and translation from pGEMhump53His273
Kind of experiment: p53 DNA binding assay: activation of DNA binding of mutant His273. In kind it is biochemical. As to conditions: oligonucleotide BC. As for the experimental part:
(§1) The ability of the peptides of this invention to activate DNA binding of human p53 was assayed using a standard DNA binding assay for p53 [Halazonetis et al. (1993), cited above; Halazonetis and Kandil (1993), cited above]. This assay utilizes in vitro translated human wild-type p53 or tumor-derived p53 mutants and specific oligonucleotides containing p53 binding sites. These reagents and methods for preparing them are described below.
Plasmid pGEMhump53wt was used to generate plasmids encoding mutant p53 proteins frequently associated with human cancer. The mutations introduced are those that are most frequently associated with human tumors [Caron de Fromentel et al. (1992), Genes Chrom. Cancer, 4: 1-15]. […]
Plasmids of the pGEMhump53 series were used to produce in vitro transcribed mRNA and subsequently in vitro translated protein, according to standard procedures [Halazonetis et al. (1988), Cell, 55: 917-924]. […] Thus, the presence of slowly migrating DNA, which can be detected by autoradiography, indicates p53 DNA binding [Halazonetis et al. (1993), cited above; Halazonetis and Kandil (1993), cited above]. […]

The next experiment relates to oligonucleotide BC.V4A. The experiment can be described thus: DNA binding assay of in vitro translated p53 deletion mutants (gel shift). How it is done:
as §1
Plasmids of the pGEMhump53 series were used to produce in vitro transcribed mRNA and subsequently in vitro translated protein, according to standard procedures [Halazonetis et al. (1988), Cell, 55: 917-924]. The in vitro translated proteins were assayed for DNA binding, as previously described [Halazonetis et al. (1993), cited above, and incorporated herein by reference]. Briefly the in vitro translated protein is incubated with a radioactively labeled oligonucleotide containing a p53 binding site in the presence of non-specific competitor DNA. The reaction mixture is incubated 20 min. at room temperature and directly loaded on a native 5% polyacrylamide electrophoresis gel. In this type of DNA binding assay free DNA migrates to the bottom of the gel, whereas p53/DNA complexes migrate more slowly. Thus, the presence of slowly migrating DNA, which can be detected by autoradiography, indicates p53 DNA binding [Halazonetis et al. (1993), cited above; Halazonetis and Kandil (1993), cited above].
As non-specific competitor DNAs we used 0.1 μg single-stranded oligonucleotide MI7 [[…], SEQ ID NO: 27] and 0.05 μg double-stranded oligonucleotide TF3 [[…], SEQ ID NO: 28] per reaction.
A number of double-stranded oligonucleotides containing p53 binding sites were radioactively labeled for these experiments. […] These three sites are indicated below, and the specific pentanucleotide repeats recognized by p53 are demarcated by hyphens. The sequence of oligonucleotide Ewaf1 (top strand) is: CCC-GAACA-TGTCC-CAACA-TGTTG-GGG [SEQ ID NO: 29]. […]

Where [1] appears, read: oligonucleotide Ewaf1, peptide 0.2-0.3 mM.

Read-outs that look alike come from different tables or passages of the source. Starred links: 1 amine or outer side, 2 acyl side, 3 side chain; linkers in the order of their positions; H or OH if unused. Non-standard residues stand in square brackets, D forms with d. Residues, ends and D or L forms follow the SMILES beside them. No end group written: not given here. X1 = O=C([C@H](CC1C=NC=N1)N[*:1])[*:2]

Regarding “Ser His Leu Lys Ser Lys Lys Gly Gln Ser Thr Ser Arg His Lys Lys Leu Met Phe Lys (Ac-SHLKSKKGQSTSRHKKLMFK-NH2) [p53p367-386]”, the “activation of DNA binding of wild-type p53” value with human wild-type p53 (setting [1]) is listed as “activated”.

Consider “Ser Lys Lys Gly Gln Ser Thr Ser Arg His Lys Lys Leu (SKKGQSTSRHKKL) [p53p371-383]”, for which, in the experiment with human wild-type p53 (oligonucleotide BC.V4A, peptide 0.2-0.4 mM), the “activation of DNA binding of wild-type p53” value is on record as “activated”. In addition, in the experiment with p53 mutant His273 (peptide 0.4 mM), the “DNA binding activity of p53His273 in presence of peptide” value was “demonstrated DNA binding activity”.

“Cys Gly Gly Ser Arg Ala His Ser Ser His Leu Lys Ser Lys Lys Gly Gln Ser Thr Ser Arg His Lys Lys Leu Met Phe Lys (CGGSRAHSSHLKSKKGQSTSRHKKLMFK; also: mixed with deletion peptides lacking Gly/Phe) [p53pC360-386]”: the “activation of DNA binding of wild-type p53” value with human wild-type p53 (oligonucleotide BC.V4A, 0.02-0.2 mM peptide) is recorded as “activated”; with human wild-type p53 (oligonucleotide Ewaf1, concentration not given), “activated”. Besides, the “DNA binding activity of p53His273 in presence of peptide” value with p53 mutant His273 (peptide 0.2 mM) is recorded as “demonstrated DNA binding activity”.

As to `C[C@H]1NC(=O)[C@H](CCCCN)NC(=O)[C@H](CCCCN)NC(=O)[C@H](CC2C=NC=N2)NC(=O)[C@H](CCCNC(=N)N)NC(=O)[C@H](CO)NC1=O` (some centres unmarked) [c[SRHKKa]] (cyclo(KK[dA]SR[X1])), the “efficiency of activation of p53 DNA binding relative to 0.05 mM peptide p53p363-373” value on human wild-type p53 (peptide 0.1 mM, assay of Example 2, p53 form and oligonucleotide not stated) is recorded as “about two times more efficiently”.

With “Ser Arg Ala His Ser Ser His Leu Lys Ser Lys Lys Gly Gln Ser Thr Ser Arg His Lys Lys Leu Met Phe Lys (Ac-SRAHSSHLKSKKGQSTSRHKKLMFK-NH2) [p53p362-386]”, the “activation of DNA binding of wild-type p53” value in the experiment with human wild-type p53 (setting [1]) is reported as “activated”.

On to “His Leu Lys Ser Lys Lys Gly Gln Ser Thr Ser Arg His (Ac-HLKSKKGQSTSRH-NH2) [p53p368-380]”, for which, in the experiment with human wild-type p53 (oligonucleotide Ewaf1), the “potency in activating DNA binding relative to p53p373-383” value is recorded as “somewhat more potent” and the “activation of binding of wild-type p53” value was “activated”.

Turning to “Arg Ala His Ser Ser His Leu Lys Ser Lys Lys (Ac-RAHSSHLKSKK-NH2) [p53p363-373]”, in the experiment with human wild-type p53 (oligonucleotide Ewaf1), the “potency in activating DNA binding relative to p53p373-383” value is on record as “somewhat more potent” and the “activation of binding of wild-type p53” value is “activated”.

Take “p53D364-393: human wild-type p53 with deletion of residues 364-393, in vitro translated”: the “Binding of Mutant p53 to BC.V4A DNA” value is listed as “activated” in the experiment with oligonucleotide BC.V4A and “activates DNA binding” in the experiment on oligonucleotide BC.V4A (listed as pGEMhump53D364-393).

On to “p53D356-393: human wild-type p53 with deletion of residues 356-393, in vitro translated”, for which the “Binding of Mutant p53 to BC.V4A DNA” value in the experiment on oligonucleotide BC.V4A is on record as “activated”.

In the case of “Lys Gly Gln Ser Thr Ser Arg His Lys Lys Leu (Ac-KGQSTSRHKKL-NH2) [p53p373-383]”, the “activation of binding of wild-type p53” value in the experiment with human wild-type p53 (oligonucleotide Ewaf1) is reported as “activated”.

As to “Arg Ala His Ser Ser His Leu Lys Ser Lys Lys Gly Gln Ser Thr Ser Arg His Lys Lys Leu Met Phe Lys (Ac-RAHSSHLKSKKGQSTSRHKKLMFK-NH2) [p53p363-386]”, the “activation of DNA binding of wild-type p53” value in the experiment with human wild-type p53 (setting [1]) is recorded as “activated”.

Values taken from US6784157B2, “Peptides and peptidomimetics with structural similarity to human p53 that activate p53 function” (Bayer Corporation, priority 1995, dated 2004).
